Measurements published in patent US20240270860A1.

Target: T1, S03933
T1 chain: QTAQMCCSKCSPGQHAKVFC
Assay: linear peptide ELISA; Affinity +
Conditions: remark: other sources report otherwise

B1: antagonistic TNFR2 antibody TNFRAB1 (antibody, V domains shown)
VH: EVQLQESGGGLVKPGGSLKLSCAASGFTFSSYVMSWVRQTPEKRLEWVATISSGGSYTYYPDSVKGRFTISRDNAKNTLYLQMSSLRSEDTAMYYCARQRVDGYSSYWYFDVWGAGTAVTVSS
VL: DIVLTQSPAIMSASPGEKVTITCSASSSVYYMYWFQQKPGTSPKLWIYSTSNLASGVPVRFSGSGSGTSYSLTISRMEAEDAATYYCQQRRNYPYTFGGGTKLEIKRA
B1 gave a Reading of 0.1.
